Results: paper PMC8156467, “Disruption of YY1-EZH2 Interaction Using Synthetic Peptides Inhibits Breast Cancer Development” (Cancers, 2021)

B1: GST-EZH2 (465–519) (domain or fragment)
chain: not shown
notes: Vector pGEX-4T-1; source: E. coli; held on Glutathione-Sepharose beads from bacterial lysate
B2: GST-EZH2 (385–618) (domain or fragment)
chain: not shown
notes: Vector pGEX-4T-1; source: E. coli; held on Glutathione-Sepharose beads from bacterial lysate (pull-down); purified (SPR)
B3: GST-EZH2 (465–545) (domain or fragment)
chain: not shown
notes: as for B2

The binders below were run against T1, His×6-YY1 (UniProt P25490 1-414) (assay: pull-down; GST-EZH2 fragments from E. coli lysates held on Glutathione-Sepharose beads, washed, 1.0 µg of purified His×6-YY1 added for 4 h at 4 °C; 20 mM Tris-HCl pH 7.5, 150 mM NaCl, 0.1% NP-40). Conditions: both partners purified.
T1 construct: Yin Yang 1 (YY1); The construct and its host are not described in the methods; also called purified His×6-YY1
T1 sequence (P25490 whole entry, the tested form may be a part): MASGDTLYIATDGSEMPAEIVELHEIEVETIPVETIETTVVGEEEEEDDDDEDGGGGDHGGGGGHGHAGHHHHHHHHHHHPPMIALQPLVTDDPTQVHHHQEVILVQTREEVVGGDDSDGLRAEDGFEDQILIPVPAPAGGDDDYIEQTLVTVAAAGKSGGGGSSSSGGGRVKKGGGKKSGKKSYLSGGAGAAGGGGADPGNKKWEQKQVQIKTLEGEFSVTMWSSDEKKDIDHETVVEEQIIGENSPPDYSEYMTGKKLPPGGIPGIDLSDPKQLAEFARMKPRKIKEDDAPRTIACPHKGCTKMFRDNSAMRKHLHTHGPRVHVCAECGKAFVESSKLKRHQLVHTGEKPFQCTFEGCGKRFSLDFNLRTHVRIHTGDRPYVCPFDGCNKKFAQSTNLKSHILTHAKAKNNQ

Binding result, binds:
B1, B2, B3
